From patent US20250206802A1 come the findings set out here.

Experiment [1] deals with αVβ6 headpiece (soluble, disulfide-linked: αv headpiece residues 1-594 with M400C and β6 headpiece residues 1-474 with I270C) (UniProt P06756). As to the kind of experiment: fluorescence anisotropy; pH 8.0.
Target sequence in this assay (P06756 other isoform, or with tags, fused parts or gaps M400C I270C, chain 1 of 2): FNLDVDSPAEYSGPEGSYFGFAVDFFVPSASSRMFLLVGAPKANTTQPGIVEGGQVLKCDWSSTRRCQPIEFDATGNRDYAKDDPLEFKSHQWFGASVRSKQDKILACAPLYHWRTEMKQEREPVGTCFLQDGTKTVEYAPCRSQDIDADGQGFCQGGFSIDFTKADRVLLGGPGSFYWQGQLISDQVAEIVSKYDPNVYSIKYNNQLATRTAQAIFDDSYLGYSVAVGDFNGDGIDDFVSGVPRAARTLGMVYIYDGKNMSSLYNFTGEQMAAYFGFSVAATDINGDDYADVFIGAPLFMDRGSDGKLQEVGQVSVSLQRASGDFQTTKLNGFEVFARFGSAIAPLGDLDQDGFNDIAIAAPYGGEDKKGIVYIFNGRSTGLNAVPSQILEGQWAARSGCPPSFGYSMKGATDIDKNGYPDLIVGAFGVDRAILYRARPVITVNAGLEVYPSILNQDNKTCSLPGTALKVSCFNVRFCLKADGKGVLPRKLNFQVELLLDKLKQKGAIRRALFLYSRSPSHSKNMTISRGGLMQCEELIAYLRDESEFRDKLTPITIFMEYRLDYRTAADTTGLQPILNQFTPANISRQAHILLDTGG
Target sequence in this assay (P18564 other isoform, or with tags, fused parts or gaps M400C I270C, chain 2 of 2, further chain): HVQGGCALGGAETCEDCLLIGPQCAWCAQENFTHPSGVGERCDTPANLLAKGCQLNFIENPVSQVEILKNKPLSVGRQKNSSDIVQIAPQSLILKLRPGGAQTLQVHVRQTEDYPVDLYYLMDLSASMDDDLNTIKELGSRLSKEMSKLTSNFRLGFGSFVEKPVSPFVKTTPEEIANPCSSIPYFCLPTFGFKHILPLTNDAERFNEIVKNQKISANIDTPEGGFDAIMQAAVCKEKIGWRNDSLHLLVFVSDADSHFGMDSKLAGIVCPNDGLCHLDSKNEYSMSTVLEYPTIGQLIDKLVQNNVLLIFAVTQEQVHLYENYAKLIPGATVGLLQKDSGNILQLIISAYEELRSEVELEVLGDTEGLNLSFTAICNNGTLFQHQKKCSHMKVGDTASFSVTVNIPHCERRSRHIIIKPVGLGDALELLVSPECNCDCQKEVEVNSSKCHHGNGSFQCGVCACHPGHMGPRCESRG
The target is the same in experiment [2]. Kind of experiment: fluorescence anisotropy; pH 6.0. A general note: Polarisation of emitted light reports the rotation of a fluorescent probe.
Target sequence in this assay (P06756 other isoform, or with tags, fused parts or gaps M400C I270C, chain 1 of 2): as the sequence (P06756 other isoform, or with tags, fused parts or gaps M400C I270C, chain 1 of 2) above
Target sequence in this assay (P18564 other isoform, or with tags, fused parts or gaps M400C I270C, chain 2 of 2, further chain): as the sequence (P18564 other isoform, or with tags, fused parts or gaps M400C I270C, chain 2 of 2, further chain) above
Experiment [3] shares this target. Kind of experiment: fluorescence anisotropy; pH 9.0.
Target sequence in this assay (P06756 other isoform, or with tags, fused parts or gaps M400C I270C, chain 1 of 2): as the sequence (P06756 other isoform, or with tags, fused parts or gaps M400C I270C, chain 1 of 2) above
Target sequence in this assay (P18564 other isoform, or with tags, fused parts or gaps M400C I270C, chain 2 of 2, further chain): as the sequence (P18564 other isoform, or with tags, fused parts or gaps M400C I270C, chain 2 of 2, further chain) above
Experiment [4] has the same target. As to the kind of experiment: fluorescence anisotropy; pH 7.0.
Target sequence in this assay (P06756 other isoform, or with tags, fused parts or gaps M400C I270C, chain 1 of 2): as the sequence (P06756 other isoform, or with tags, fused parts or gaps M400C I270C, chain 1 of 2) above
Target sequence in this assay (P18564 other isoform, or with tags, fused parts or gaps M400C I270C, chain 2 of 2, further chain): as the sequence (P18564 other isoform, or with tags, fused parts or gaps M400C I270C, chain 2 of 2, further chain) above
Experiment [5] shares this target. As to the kind of experiment: fluorescence anisotropy; pH 5.0.
Target sequence in this assay (P06756 other isoform, or with tags, fused parts or gaps M400C I270C, chain 1 of 2): as the sequence (P06756 other isoform, or with tags, fused parts or gaps M400C I270C, chain 1 of 2) above
Target sequence in this assay (P18564 other isoform, or with tags, fused parts or gaps M400C I270C, chain 2 of 2, further chain): as the sequence (P18564 other isoform, or with tags, fused parts or gaps M400C I270C, chain 2 of 2, further chain) above
Experiment [6] has as its target αVβ3 headpiece (soluble, disulfide-linked: αv headpiece residues 1-594 with M400C and β3 headpiece residues 1-472 with Q267C) (UniProt P06756). Kind of experiment: fluorescence anisotropy competition.
Target sequence in this assay (P06756 other isoform, or with tags, fused parts or gaps M400C Q267C, chain 1 of 2): as the sequence (P06756 other isoform, or with tags, fused parts or gaps M400C I270C, chain 1 of 2) above
Target sequence in this assay (P05106 27-498 Q293C, chain 2 of 2, further chain): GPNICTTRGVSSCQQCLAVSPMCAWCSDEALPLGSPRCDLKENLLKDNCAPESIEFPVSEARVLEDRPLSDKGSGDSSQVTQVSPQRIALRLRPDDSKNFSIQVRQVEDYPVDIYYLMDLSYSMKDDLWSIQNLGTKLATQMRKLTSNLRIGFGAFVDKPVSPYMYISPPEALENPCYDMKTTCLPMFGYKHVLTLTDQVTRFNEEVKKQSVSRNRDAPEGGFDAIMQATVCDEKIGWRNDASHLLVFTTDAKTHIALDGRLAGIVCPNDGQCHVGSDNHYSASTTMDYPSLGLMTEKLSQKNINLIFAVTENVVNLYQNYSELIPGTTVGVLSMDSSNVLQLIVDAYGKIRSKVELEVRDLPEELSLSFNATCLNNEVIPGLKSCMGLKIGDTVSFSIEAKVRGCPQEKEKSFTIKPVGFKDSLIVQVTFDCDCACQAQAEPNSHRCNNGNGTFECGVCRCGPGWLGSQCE
Experiment [7] concerns the target αVβ6 headpiece (soluble, disulfide-linked: αv headpiece residues 1-594 with M400C and β6 headpiece residues 1-474 with I270C) (UniProt P06756). Kind of experiment: competitive fluorescence anisotropy on αVβ6 headpiece.
Target sequence in this assay (P06756 other isoform, or with tags, fused parts or gaps M400C I270C M400C I270C, chain 1 of 2): as the sequence (P06756 other isoform, or with tags, fused parts or gaps M400C I270C, chain 1 of 2) above
Target sequence in this assay (chain, as listed by the source M400C I270C M400C I270C, chain 2 of 2): as the sequence (P18564 other isoform, or with tags, fused parts or gaps M400C I270C, chain 2 of 2, further chain) above
For experiment [8] the target is unchanged. As to the kind of experiment: fluorescence anisotropy, competition with FITC-GRGDLGRL on αVβ6 headpiece.
Target sequence in this assay (P06756 other isoform, or with tags, fused parts or gaps M400C I270C M400C I270C, chain 1 of 2): as the sequence (P06756 other isoform, or with tags, fused parts or gaps M400C I270C, chain 1 of 2) above
Target sequence in this assay (chain, as listed by the source M400C I270C M400C I270C, chain 2 of 2): as the sequence (P18564 other isoform, or with tags, fused parts or gaps M400C I270C, chain 2 of 2, further chain) above
Experiment [9] deals with αVβ3 headpiece (soluble, disulfide-linked: αv headpiece residues 1-594 with M400C and β3 headpiece residues 1-472 with Q267C) (UniProt P06756). Kind of experiment: fluorescence anisotropy, competition with FITC-GRGDLGRL on αVβ3 headpiece.
Target sequence in this assay (P06756 other isoform, or with tags, fused parts or gaps M400C Q267C M400C Q267C, chain 1 of 2): as the sequence (P06756 other isoform, or with tags, fused parts or gaps M400C I270C, chain 1 of 2) above
Target sequence in this assay (chain, as listed by the source M400C Q267C M400C Q267C, chain 2 of 2): as the sequence (P05106 27-498 Q293C, chain 2 of 2, further chain) above

Take “FITC-GRGDLGRL (SEQ ID NO: 68), FITC-pro-TGF-β3 peptide”: the Kd – broadly, the constant that tells how readily two partners part at equilibrium – in [1] worked out at 84.6 nM; in experiment [2] it was 2000 nM; in experiment [3], 27.4 nM; in [4] it was 212 nM; in [5], 3810 nM.

Take “GRGDSP (SEQ ID NO: 72) peptide of fibronectin”: the Kd in experiment [6] was 1600 nM.

HGRGDLGR [TGF-β3 undecapeptide truncated from the C-terminus until Leu-247 is removed] registered a step-wise drop in affinity (fold, against the peptide one residue longer) in [7] of 10 fold.

In experiment [8], GRGDLGRLK [nonapeptide containing RGD from pro-TGF-β3, … (SEQ ID NO: 75)] yielded a Kd of 8.5 nM. In addition, in experiment [9], the fold lower affinity than for αVβ6 was 1000 fold.

In experiment [7], HGRGD [TGF-β3 undecapeptide truncated from the C-terminus until Leu-244 is removed] displayed a step-wise drop in affinity (fold, against the peptide one residue longer) of 10 fold.
